Assay [1] has as its target T1, CD38 on CD38-positive cell lines (human, UniProt P28907 1-300). Put plainly: FACS; MM1S cells. (In general: Flow cytometry measures light scatter and fluorescence of single cells or particles in a stream.)
Assay [2] deals with T1, CD38 on CD38-positive cell lines. Put plainly: FACS; MOLP-8 cells.
The target is the same in assay [3]. Put plainly: FACS; H929 cells.
Assay [4] shares this target. Put plainly: FACS; RPMI 8226 cells.
Assay [5] has the same target. Put plainly: FACS; SU-DHL-6 cells.
Assay [6] has the same target. Put plainly: FACS; Daudi cells.
Assay [7] has the same target. Put plainly: FACS; Ramos cells.
The target is the same in assay [8]. Put plainly: FACS; Raji cells.

B1: daratumumab (antibody, V domains shown)
VH: EVQLLESGGGLVQPGGSLRLSCAVSGFTFNSFAMSWVRQAPGKGLEWVSAISGSGGGTYYADSVKGRFTISRDNSKNTLYLQMNSLRAEDTAVYFCAKDKILWFGEPVFDYWGQGTLVTVSS
VL: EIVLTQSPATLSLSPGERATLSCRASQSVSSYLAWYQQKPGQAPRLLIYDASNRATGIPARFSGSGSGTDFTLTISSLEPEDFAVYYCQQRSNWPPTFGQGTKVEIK
Broadly, the EC50 is the concentration giving half of the maximal effect. A low value points to greater potency. With B1, the EC50 in assay [1] amounted to 0.581 µg/mL; in assay [2] it was 0.28 µg/mL; in assay [3], 0.767 µg/mL; in assay [4], 1.19 µg/mL; in assay [5], 0.548 µg/mL; in assay [6], 0.289 µg/mL. The figures for the EC50 in assay [7] and in assay [8] were 0.74 µg/mL and 0.321 µg/mL, respectively.

For the origin of these results see paper PMC9798557 (2022).
